Paper PMC6224610, “Structural basis for the recognition of sulfur in phosphorothioated DNA” (Nature Communications, 2018)

Experiments:
[1] = biological target: T1, ScoMcrA-SBD (Streptomyces coelicolor, UniProt Q9L0M9 91-260); assay: fluorescence polarization; conditions: phosphorothioate G(PS)GCC, EMSA: 20 mM Tris-HCl pH 8.5, 200 mM NaCl, 1 mM DTT, 5% glycerol, 4 C, 30 min, FP: 20 mM Tris pH 8.0, 50 mM NaCl, room temperature, 5 nM …
T1 sequence: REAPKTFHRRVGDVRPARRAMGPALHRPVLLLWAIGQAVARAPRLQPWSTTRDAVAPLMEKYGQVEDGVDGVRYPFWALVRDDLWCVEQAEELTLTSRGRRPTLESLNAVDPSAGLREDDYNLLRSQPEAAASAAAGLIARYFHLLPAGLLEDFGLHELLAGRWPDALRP

[2] = test system: ScoMcrA-SBD R117K (Streptomyces coelicolor); assay: fluorescence polarization; conditions: phosphorothioate G(PS)GCC, EMSA: 20 mM Tris-HCl pH 8.5, 200 mM NaCl, 1 mM DTT, 5% glycerol, 4 C, 30 min, FP: 20 mM Tris pH 8.0, 50 mM NaCl, room temperature, 5 nM …
[3] = test system: ScoMcrA-SBD A168I (Streptomyces coelicolor); assay: EMSA; conditions: Rp phosphorothioate G(PS)GCC, both strands, EMSA: 20 mM Tris-HCl pH 8.5, 200 mM NaCl, 1 mM DTT, 5% glycerol, 4 C, 30 min, FP: 20 mM Tris pH 8.0, 50 mM NaCl, room temperature, 5 nM …
[4] = test system: ScoMcrA-SBD H116I (Streptomyces coelicolor); assay: EMSA; conditions: Rp phosphorothioate G(PS)GCC, both strands, EMSA: 20 mM Tris-HCl pH 8.5, 200 mM NaCl, 1 mM DTT, 5% glycerol, 4 C, 30 min, FP: 20 mM Tris pH 8.0, 50 mM NaCl, room temperature, 5 nM …
[5] = test system: ScoMcrA-SBD R190A (Streptomyces coelicolor); assay: EMSA; conditions: Rp phosphorothioate G(PS)GCC, both strands, EMSA: 20 mM Tris-HCl pH 8.5, 200 mM NaCl, 1 mM DTT, 5% glycerol, 4 C, 30 min, FP: 20 mM Tris pH 8.0, 50 mM NaCl, room temperature, 5 nM …
[6] = test system: ScoMcrA-SBD R191A (Streptomyces coelicolor); assay: EMSA; conditions: Rp phosphorothioate G(PS)GCC, both strands, EMSA: 20 mM Tris-HCl pH 8.5, 200 mM NaCl, 1 mM DTT, 5% glycerol, 4 C, 30 min, FP: 20 mM Tris pH 8.0, 50 mM NaCl, room temperature, 5 nM …
[7] = test system: ScoMcrA-SBD S187A (Streptomyces coelicolor); assay: EMSA; conditions: Rp phosphorothioate G(PS)GCC, both strands, EMSA: 20 mM Tris-HCl pH 8.5, 200 mM NaCl, 1 mM DTT, 5% glycerol, 4 C, 30 min, FP: 20 mM Tris pH 8.0, 50 mM NaCl, room temperature, 5 nM …
[8] = test system: ScoMcrA-SBD Y164F (Streptomyces coelicolor); assay: EMSA; conditions: Rp phosphorothioate G(PS)GCC, both strands, EMSA: 20 mM Tris-HCl pH 8.5, 200 mM NaCl, 1 mM DTT, 5% glycerol, 4 C, 30 min, FP: 20 mM Tris pH 8.0, 50 mM NaCl, room temperature, 5 nM …
[9] = test system: ScoMcrA-SBD Y164I (Streptomyces coelicolor); assay: EMSA; conditions: Rp phosphorothioate G(PS)GCC, both strands, EMSA: 20 mM Tris-HCl pH 8.5, 200 mM NaCl, 1 mM DTT, 5% glycerol, 4 C, 30 min, FP: 20 mM Tris pH 8.0, 50 mM NaCl, room temperature, 5 nM …
[10] = biological target: T1, ScoMcrA-SBD; assay: crystal structure (1.70 A); EMSA: 20 mM Tris-HCl pH 8.5, 200 mM NaCl, 1 mM DTT, 5% glycerol, 4 C, 30 min; FP: 20 mM Tris pH 8.0, 50 mM NaCl, 1 mM DTT, 5% glycerol, room temperature, 5 nM FAM-DNA; conditions: protein: recombinant; tags: MBP tag removed by TEV; blunt
[11] = biological target: the molecule itself; assay: crystal structure; full-length ScoMcrA alone, 3.15 Å, space group P212121, six molecules in each asymmetric unit
[12] = biological target: T2, ScoMcrA FL (Streptomyces coelicolor, UniProt Q9L0M9 1-560); assay: EMSA; EMSA: 20 mM Tris-HCl pH 8.5, 200 mM NaCl, 1 mM DTT, 5% glycerol, 4 C, 30 min; FP: 20 mM Tris pH 8.0, 50 mM NaCl, 1 mM DTT, 5% glycerol, room temperature, 5 nM FAM-DNA; conditions: protein: recombinant; tags: MBP tag removed by TEV; chain copies: 2; blunt
T2 sequence: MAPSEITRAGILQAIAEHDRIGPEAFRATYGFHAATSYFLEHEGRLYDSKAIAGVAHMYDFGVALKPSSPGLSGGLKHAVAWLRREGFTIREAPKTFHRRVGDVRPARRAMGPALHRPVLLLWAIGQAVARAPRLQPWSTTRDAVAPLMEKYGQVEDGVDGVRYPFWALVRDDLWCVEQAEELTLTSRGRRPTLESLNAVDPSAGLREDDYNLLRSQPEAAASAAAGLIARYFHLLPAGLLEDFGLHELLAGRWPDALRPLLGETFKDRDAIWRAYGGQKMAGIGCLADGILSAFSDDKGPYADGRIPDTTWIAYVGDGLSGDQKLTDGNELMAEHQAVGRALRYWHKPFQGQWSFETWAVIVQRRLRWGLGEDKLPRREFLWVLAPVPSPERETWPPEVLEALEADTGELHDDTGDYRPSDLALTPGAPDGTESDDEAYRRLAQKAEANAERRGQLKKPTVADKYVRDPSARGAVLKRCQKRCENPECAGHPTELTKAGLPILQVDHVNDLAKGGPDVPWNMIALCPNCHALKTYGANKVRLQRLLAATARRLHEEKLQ

[13] = biological target: T1, ScoMcrA-SBD; assay: as above; conditions: protein: recombinant; tags: MBP tag removed by TEV; blunt
[14] = biological target: the molecule itself; assay: crystal structure; ScoMcrA-SBD-SRA (91-442) with 10 bp Rp PT-DNA, 3.30 Å, space group I4122; the two protomers are related by the crystallographic two-fold rotation axis
[15] = biological target: T3, ScoMcrA-SBD-SRA (Streptomyces coelicolor, UniProt Q9L0M9 91-442); assay: crystal structure (3.30 A); EMSA: 20 mM Tris-HCl pH 8.5, 200 mM NaCl, 1 mM DTT, 5% glycerol, 4 C, 30 min; FP: 20 mM Tris pH 8.0, 50 mM NaCl, 1 mM DTT, 5% glycerol, room temperature, 5 nM FAM-DNA; conditions: protein: recombinant; tags: MBP tag removed by TEV; chain copies: 2; blunt
T3 sequence: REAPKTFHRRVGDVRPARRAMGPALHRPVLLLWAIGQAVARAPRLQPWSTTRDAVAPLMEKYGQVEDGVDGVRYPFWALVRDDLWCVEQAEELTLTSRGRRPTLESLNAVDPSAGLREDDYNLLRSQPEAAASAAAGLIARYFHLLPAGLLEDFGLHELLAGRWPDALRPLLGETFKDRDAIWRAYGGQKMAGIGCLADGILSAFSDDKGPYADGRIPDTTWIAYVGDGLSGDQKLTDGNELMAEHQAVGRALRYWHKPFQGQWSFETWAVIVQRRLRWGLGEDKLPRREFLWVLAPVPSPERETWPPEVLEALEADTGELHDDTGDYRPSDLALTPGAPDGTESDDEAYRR

## 5-FAM PT-DNA, GGCC core (FP)
[1]
  Kd: 1320 nM
[2]
  Kd: 1550 nM

## 5-FAM hemi-PT-DNA (FP)
[1]; one strand
  Kd: 1470 nM

## Rp PT-DNA, GGCC core (EMSA)
[3]
  binding signal (% reduction vs WT): 51
[4]
  binding signal (% reduction vs WT): 94
[5]
  binding signal (% reduction vs WT): 82
[6]
  binding signal (% reduction vs WT): 72
[7]
  binding signal (% reduction vs WT): 38
[8]
  binding signal (% reduction vs WT): 65
[9]
  binding signal (% reduction vs WT): 89

B1: GGCC8 Rp (dsDNA)
DNA 1: CCGGCCGG
DNA 2: CCGGCCGG
modifications: Rp phosphorothioate between G3 and G4, both strands
[10]
  binding result: binds

B2: full-length Streptomyces coelicolor ScoMcrA (ScoA3McrA), DNA phosphorothioation-dependent Type-IV restriction endonuclease (enzyme, UniProt Q9L0M9 1-560, looked up)
chain: T2 sequence
notes: ScoMcrA (ScoA3McrA), Streptomyces coelicolor, full length; head, SBD, SRA and HNH domains; the model reaches residue 560; The structure was phased by SAD with a selenomethionine derivative of the full-length protein; Cloned into pSJ8; also called FL ScoMcrA; source: E. coli BL21(DE3), purified (HisTrap, TEV cleavage, heparin, Source 15Q, Superdex 200)
[11]
  stoichiometry N: 2

B3: hemi-PT-DNA (S10hemi-S/U10hemi-A) (dsDNA)
DNA 1: CCCGGCCGCC
DNA 2: GGCGGCCGGG
modifications: Rp phosphorothioate between G4 and G5 of strand 1 only
[12]
  binding result: binds
[13]
  binding result: binds

B4: SBD-SRA domains of ScoMcrA (residues 91-442) (domain or fragment, Streptomyces coelicolor, UniProt Q9L0M9 91-442, looked up)
chain: T3 sequence
notes: ScoMcrA (ScoA3McrA), Streptomyces coelicolor, SBD-SRA domains, residues 91-442; Crystallised in complex with a 10 bp Rp PT-DNA; the dimer is formed by a crystallographic two-fold axis; also called ScoMcrA-SBD-SRA; source: E. coli BL21(DE3), purified (HisTrap, TEV cleavage, heparin, Source 15Q, Superdex 200)
[14]
  stoichiometry N: 2

B5: GGCC10 Rp (dsDNA)
DNA 1: CCCGGCCGGG
DNA 2: CCCGGCCGGG
modifications: Rp phosphorothioate between G4 and G5, both strands
[15]
  binding result: binds
